The target of experiment [1] is SusF, purified recombinant (untagged) (Legionella pneumophila (Philadelphia-1 Lp01)) (UniProt Q5ZSL2). The experiment is described as follows: SPR.
Experiment [2] shares this target. The experiment is described as follows: SPR. The source holds these as a separate data set. A general note: Surface plasmon resonance follows binding to a sensor surface in real time, without labels.
The target of experiment [3] is SusF co-expressed with SidI (Legionella pneumophila (Philadelphia-1 Lp01)). The experiment is described as follows: SEC. In general terms: SEC sorts molecules by how far they enter the pores of the column.

Like-named read-outs stand apart in the source and are kept apart here.

With “His6-SidI (from UniProt Q5ZSL3 1-942) (natural protein)”, in experiment [1], the Kd is 0.89 nM, the koff was 0.00019 s⁻¹ and the kon was found to be 220000 M⁻¹ s⁻¹. In addition, in experiment [2], the dissociation constant Kd was determined as 3.1 nM; the koff,1 (two-state model, first step) is 0.00051 s⁻¹; the koff,2 (two-state model, second step) came out at 0.00045 s⁻¹; the kon,1 (two-state model, first step) came to 27000 M⁻¹ s⁻¹. The kon,2 (two-state model, second step) in experiment [2] worked out at 0.0023 s⁻¹.

“SidI co-expressed with SusF (natural protein)” had a stoichiometry N in experiment [3] of 1.

The Kd is a measure of binding affinity in units of concentration. Broadly, the koff is a measure of how fast the partners let go of each other. As usually defined, the kon is the second-order rate constant of association. A word on the stoichiometry N: it is a count of units in the complex or per binding partner.

The values are drawn from publication doi:10.1101/845313.
